Measurements published in the nanobody polyreactivity screen of Harvey et al. (2022).

Test: yeast display, Sf9 membrane polyspecificity reagent, FACS + sequencing; frameworks hold sequencing errors
Outline: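 Galactose induction of a Saccharomyces cerevisiae BJ5465 synthetic nanobody display library ran 36–48 hours. The cells were then stained for 1 hour at 4 °C with 10% biotinylated, detergent-solubilized Sf9 membrane reagent, pulled down on streptavidin microbeads and FACS-sorted into low and high (top ~1%) gates on expression and reagent-binding fluorescence. Labels for polyreactivity follow the gate of origin.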

Sequence	polyreactivity (PSR sort gate)
QVQLVESGGGLVQAGGSLRLSCAASRRTFNGNAMGWYRQAPGKETELVATITSSAGTTYYADSVKGRFTISRDNAKNTVYLQMNSLKPEDTAVYYCAKRIWRSYPYRPYYSEFGYWGQGTQVTVSS	high polyreactivity
QVQLVESGGGLVQAGGSLRLSCAASRRTFSQYAMGWYRQAHGKERELVAAITSARSTYYADSVKGRFTISRDNAKNTVYLQMNSLKPEDTAVYYCAAYIRFRSNWGQGTQVTVSS	high polyreactivity
QVQLVESGGGLVQAGGSLRLSCAASRRTFYEYAMGWYRQAPGKERELVAAITRSGGSTYYADSVKGRFTISRDNAKNTVYLQMNSLKPEDTAVYYCAAYRHQYRVRYYTAYDYWGQGTQVTVSS	high polyreactivity
QVQLVESGGGLVQAGGSLRLSCAASRSIFAGNAMVWYRQSPGKERELVAGITFGDDSTYYADSVKGRFTISRDNAKNTVYLQMNSLKPEVTAVYYCATDLHPYNYYFYHYWVDAAYDYLGQGTQVTVSS	low polyreactivity
QVQLVESGGGLVQAGGSLRLSCAASRSTFEGYAMGLYRQAPGKERELVAAITVSVGSTYYADSVKGRFTISRDNAKNTVYLQMNSLKPEDTAVYYCAADYDYQYRYYYWGQGTQVTVSS	low polyreactivity
QVQLVESGGGLVQAGGSLRLSCAASRSTITYNAMGWYRQAPGKERELVAAISFSGGRTYYADSVKGRFTISRDNAKNIVYLHMNRLKPEDTAVYYCAKRYGASFYYWGQGTQVTVSS	high polyreactivity
QVQLVESGGGLVQAGGSLRLSCAASRSTLCQNAMGWYRQAPGKEREFVADNSGSGDSTYYADSVKGRFTISRDHANNTVYLQLNSLTPEDTAVYYCATPSPHVGLKWEYDSWGQGTQVTVSS	low polyreactivity
QVQLVESGGGLVQAGGSLRLSCAASRYIFAHYAMGWYRQAPGKERELVAAISTRGGSTYYADSVKGRFTISRDNAKNTVYLQMNSLKPEDTAVYYCNNYRYAGITAEFYYWGQGTQVTVSS	high polyreactivity
QVQLVESGGGLVQAGGSLRLSCAASRYIFVRYAMGWYRQAPGKERELVAPNNSSGGRTYYAHSVKGRFTISRDNAKNTVYLQMNSLKQEDTAVYYCAAYGYYRSGYRALEGYWGQGTQVTVSS	high polyreactivity
QVQLVESGGGLVQAGGSLRLSCAASSRIFVAKAMGWYRKAPGKERELVATITRGASTNYADSVKGRFTISRDNAKNTVYLQMNRLKPEDTAVYYCDKRSYTGYEYWGQGTQVTVSS	low polyreactivity
QVQLVESGGGLVQAGGSLRLSCAASVFNFIYYTMGWYRPAPGKERELVAAISWSGGGTYYADSVKGRFTISRDNAKNTVYLLMNRLKPEDTAVYYCAAYWYVSSRDFEYWGQGTQVTVSS	high polyreactivity
QVQLVESGGGLVQAGGSLRLSCAASVFTCAVYVMGWYRQAPGKERELVANISFSVGSTYYADSVKGRFTISRDYAKNTVYLQMNSLKPEDTAVYYCNADPPPEYYPDKDNYWGQGTQVTVSS	low polyreactivity
QVQLVESGGGLVQAGGSLRLSCAASVFTFPPYAMGWSRQAPGKERELVAAISSAGSTKYADSVKGRFTISRDNAKNTVYLQMNSLKPEDTAVYYCAARWARSYDYWGQGTQVTVSS	low polyreactivity
QVQLVESGGGLVQAGGSLRLSCAASVLIFYWYAMGWYRQAPGKERELVAAISSAGSTNYADSVKGRFTISRDNAKNTVYLQMNSLKPEDTAVYYCYARIAYRYSNYGYWGQGTQVTVSS	low polyreactivity
QVQLVESGGGLVQAGGSLRLSCAASVLTFITNVMVWYRQAPGKERELVAVISSRGGTTYYADSVKGRFTISRDNAKNTVYLQMNSLKPEETAVYYCNRVRSPKYDWGQGTQVTVSS	high polyreactivity
QVQLVESGGGLVQAGGSLRLSCAASVPTFPFNAMGWYRQAPGKERELVAAISWRDGRTYYADSVKGRFTISRDNAKNTVYLQMNSLKPEDTAVYYCNVVKRRSDWGMDYWGQGTKVTVSS	high polyreactivity
QVQLVESGGGLVQAGGSLRLSCAASVRIFGKYAMGRYRQAPGKERELVAAITNSGGRTYYAASVKGRFTISRDNAKNTVYLQMNSLKPEDTAVYYCAALYHASTRQMDYWGQGTQVTVSS	high polyreactivity
QVQLVESGGGLVQAGGSLRLSCAASVRIFGSNVMGWYRQAPGKERELVAAINWIGGSTYYADSVKGRFTISRDNAKNTVYLQMNSLKPEDTAVYYCARKRYNGRGYVGYYYWGQGTQVTVSS	high polyreactivity
QVQLVESGGGLVQAGGSLRLSCAASVRIFGYNAMGWSRQAPGKERYLVAAITTSGGSTYYADSVKGRFTISRDNAKNTVYLQMNSLKPEDTAVYYCARDSLQVFYPYASDDYWGQGTQVTVSS	low polyreactivity
QVQLVESGGGLVQAGGSLRLSCAASVRIFQYYVMGWYIQAPGKERELVAAITSGGGTKYADSVKGRFTISRDNAKNTVYLQMNSLIPEDTAVYFCAAAWFDQYSRYDYWGQGTQVTVSS	low polyreactivity
QVQLVESGGGLVQAGGSLRLSCAASVRIFRGNDMGWYRKAPGKERELVARITGNDGDTYYADSVKGRFTISRDNAKNTVYLQMNSLKPEDTAVYYCATDTSSYRRRYYYWGQGTQVTVSS	low polyreactivity

Sequence	polyreactivity (PSR sort gate)
QVQLVESGGGLVQAGGSLRLSCAASVRIFRYYVMGWYRQAPGKVRELVAAITSGTSTNFAESVKGRFTISRDNAKNTVYLQMNRLKPEDTAVFYCAVRSPRGGRTRFNSNYWGQGTQVTVSS	high polyreactivity
QVQLVESGGGLVQAGGSLRLSCAASVRLFRGYAMGWYRQAPGKERELVAGITSGGSTKYADSVKGRFTISRDNAKNTVYLQMNSLKPEDTAVYDCAKGYLAYSYYARPYIRYYWGQGTQVTVSS	high polyreactivity
QVQLVESGGGLVQAGGSLRLSCAASVRTFDSYTMGWYRPAPGKERELVAAIRSSGGRTYADSVKGRFTISRDNAKNTVYLQMNSLKPEDTAVYYCAAARSYWAKYYYWGQGTQVTVSS	high polyreactivity
QVQLVESGGGLVQAGGSLRLSCAASVRTFGGYAMGLYRQAPGKERELVAAITSDTGTNYADSVKGRFTISRDNAKNTVYLEMNSLKPEDTAVYYCAADTPYSYYLNIYWKGMDYWGQGTQVTVSS	low polyreactivity
QVQLVESGGGLVQAGGSLRLSCAASVRTFHYYAMGWYRQAPGKERELVAGITGGGSTYYADSVKGRFTISRDNAKNTVYLLMNSLKPEDTAVYYCADDRSYYGYGYCGQGTQVTVSS	low polyreactivity
QVQLVESGGGLVQAGGSLRLSCAASVSIFGYYAMGWYRPAPGKEMELVAAISSGGNTNYADSVKGRFTISRDNAKNTVYLQMISLKQEDTAVYYCATRARYKRIRYDYWGQGTQVTVSS	high polyreactivity
QVQLVESGGGLVQAGGSLRLSCAASVSIFIANVMGWYRQAPGKERELVAAITRTSSTYYADSVKGRFTISRDNAKNTVYLQMNSLKPEDTAVYYCAKLYGVVGRWYRSSYGYWGQGTQVTVSS	high polyreactivity
QVQLVESGGGLVQAGGSLRLSCAASVSISLYYAMGWYRQAPGKERELVAAISTRGGSTYYADSVKGRFTISRDNAKNTVYLQMNSLKPEDTAVYYCAARTRLTADPRYGISSKMYYWGQGTQVTVSS	high polyreactivity
QVQLVESGGGLVQAGGSLRLSCAASVSLSGYYAMGWYRTGPGKERELVASIRYTGALTYYADTVKGRFTISRDNAKNTVYLQMNSLKPEDTAGYYCAADVKRDRVWGGDYWGQGTQVTVSS	low polyreactivity
QVQLVESGGGLVQAGGSLRLSCAASVSPFWLNAMGWYRPAPGKEREFVAAITVGGGSTYYADSVKGRFTISRDNAKNTDYLQMNSLKPEDTAVYYCAALYRFWYPGNSYDYWGQGTQVTVSS	high polyreactivity
QVQLVESGGGLVQAGGSLRLSCAASVSTFAVYAMGWYRQAPGKERELVAAISSSGDRTFYADSVKGRFTISRDNAKNTVYLQMNSLKPEDTAVYYCNVPYKYRRAYDGGYDYWGQGTQVTVSS	high polyreactivity
QVQLVESGGGLVQAGGSLRLSCAASVSTFFRYAKRWYRQAPGKERELVAAISKRGGSTSYADSVKGRFTISRDNAKNTVYLQMNSLKPEDTAVYYCATVYWLFARYDYWGQGTQVTVSS	high polyreactivity
QVQLVESGGGLVQAGGSLRLSCAASVSTFQVYGMGWYREAPGKERELVAAISYSGGRTYYADSVKGRFTISRDNAKNTVYLQMNILKPEDTAVYYCNAVLAHDPRLDYWGQGTQVTVSS	high polyreactivity
QVQLVESGGGLVQAGGSLRLSCAASVSTFQYNARGWYRQAPGKEMELVAAITSRGGSTYYADSVKGRFTISRDNAKNTVYLQMNSLKPEDTALYYCAALLSKSGRFDRAKVTAYGYWGQGTQVTVSS	low polyreactivity
QVQLVESGGGLVQAGGSLRLSCAASVSTLSDNAMGWYRQAPGKERELVASISWSGGTYYADSVKGRFTISRDNAKNTVYLQMNSLKPEDTAVYYCAAYIYYNYSRQYWYDYWGQGTQVTVSS	low polyreactivity
QVQLVESGGGLVQAGGSLRLSCAASWYTMGWYRQAPGKERELVAAITGGGSTNYADSVKGRFTISRDNAKNTVYLQMNSLKPEDTAVYYCAKTRVLLNSYSYNIIYDYWGQGTQVTVSS	low polyreactivity
QVQLVESGGGLVQAGGSLRLSCAATGFIFAANAMGWYRQAPGKERELVAAINYRGSSTYYADSVKGRFTISRDNAKNTVYLQMNSLKPEDTAVYYCAARSGAQRGGGYWGQGTQVTVSS	high polyreactivity
QVQLVESGGGLVQAGGSLRLSCAATGFIFERNAMGWYRQAPGKERELVAVISYSGGRTYYADSVKGRFTISRDNANNTVYLQMNSLKPEDTAVYYCAATIVKYGYHYDYWGQGTQVTVSS	high polyreactivity
QVQLVESGGGLVQAGGSLRLSCAATGFTFFRYAMGWYRQARGKERELVAAITYSGSSTYYADSVKGRFTISRDNAKNTGYLQRNSLKPEDTAVYYCNAVQGFYSWVLYYYAYDYWGQGTQVTVSS	high polyreactivity
QVQLVESGGGLVQAGGSLRLSCAATGFTFGSNVMGWYRQAPGKERELVATIRRGGSTNYADSVKGRFTISRDNAKNTVYLQLNSLKPEDTAVYYCATRYREWGQGTQVTVSS	high polyreactivity
